Measured values published in a protein production outcome set (Wang et al. 2014).

Experiment: label from the status in PepcDB records

Row | Sequence | protein production
1 | MQQKDAVPDTAKKLKAPLTGLKTEQKVTERRPVAVVVNNHPKARPQSGLSKADIVIEALAEGQITRFLAIFQSQMPETVGPVRSAREYFVTLSNGFDSIFVHHGWSPGAKKQLESGAADYMNGLDFDGSLFWRADFSKPPHNSYTSYDYIKKAAEQKGYKLKQETNPLLFQTSDAKPANESYNVRVDYGTNNVTNLVEYNYDKKAEFYTRSSDGVITTDRETGKPVAMQNIFIVEASHHIIDQDGRRDIDLESGGKGLLFQHGNVIETDWKQVNGRIVPVKDGKWLPFVPGKTWINIVPDLDAASISKGEGVLEHHHHHH | not failed
2 | MIPLHRLCRALALLMGFGPTLSALAASAPEGLPLLGTGEGLEVRGCETLVLRGGQVVRLAEIIGPEAEGAARAQAALGALVVGHSLRLYGESPLADRYGRLHAHGVTEEGRWVQGALVEAGLARVVIREGESALSGALLALEERARRAGRGLWPPASAASPPPGALAATGDGFQVVEGRIVSAARAGRRIYLNFGADWRSDFTVSLSEAMLARLLATGRDPLAWAGRRVRVRGWVTRRNGPLLDLPHPMALEGPLDGPPFLSPKENLDLEYPGN | failed
3 | MPGKLTATILTRNEAANIGDCIDSLAQLADEVIVLDSGSTDATRDIARARGANVIEDDGPWPGFGPQKNRALDRATGEWVLSIDADERVPPELAQEIRTAMARADADAYAIPRLSQFCGAWVHHSGWRPDHVIRLFRRGKARFSENLVHESLQVTGNVARLRTSLLHYSYTSMDQVHRKSAQYAEAGARDLTQRGKHIGALSPVLHGTWAFVRTLVLRRGFLDGGTGLAIARMNATVSYRKYRRARELASGANHRPLEHHHHHH | failed
4 | MQNNKTKLLDEVATYYAEKLAEHGDTPRGVDWNGEESQTIRFEQLCKVIDPKKMPGFSLNDLGCGYGALLDYLRDKYAACIYLGVDVSHEMIKAARQRHTAANQARFITSTEPDQVADYGVASGIFNVRLERTDAEWFDYLLGTLDVLNRTSSLGFAFNCLTSYSDEDKKRDYLYYADPCRLFDLCKRRYSRQVALLHDYGLYEFTILIRKALEHHHHHH | failed
5 | MAIKNAFYAQSGGVTAVINASACGVIQTARKHPDQIGKVYAGRNGIIGALKEELIDTSLESDDAIQALIHTPGGAFGSCRYKLKNISENQREYERLIEVFRAHDIGYFFYNGGGDSQDTAYKVSQLADRMGYPITCIGVPKTVDNDLPFTDCCPGFGSVAKYIATSTLEASLDIKSMCETSTKVFILEVMGRHAGWIAAAGGLAGQSEGEPPHVILFPEIPFNREKFLERVDQCVRDYGYCVVVASEGAQYEDGRFVADAGAKDAFGHTQLGGVAPALANMVKQALGHKYHWAVADYLQRAARHIASATDVEQAYAVGKAAVEMALAGKQALMPTIVRDQAKPYRWSIGEANLSEVANQEKKMPIHYITDNGFGITQDCRDYLQPLIAGESFPPFDDGLPRVAKLKNQLVEKKLRTEFELLEHHHHHH | failed
6 | MNDRPNNYILTRESGFKVITELTKGQNCNGAETHPINGELYFNSWNAGQVFRYDFTTQETTPLFTIQDSGWEFHIQFHPSGNYAYIVVVNQHYILRSDYDWKTKRLTTPYIVCGQQGAKDWVDGVGKKARMHAPRQGTFVKNPAYKGSSDEYDFYFCDRENHCIRILTPQGRVTTFAGRGSNGTSGYNDGDLRQEARFNHPEGIVYDEERECFFIGDRENRRIRKIGLEHHHHHH | not failed
7 | MQMSEKFKQIRARLRLPVLVAPMLRISGPALVAASCSNGVIGSFPTVNARTPDQLDRWIDEIKQAVSAAGAYDAPYCANILARSDPDKLQADLKILIKHKVEIVLVSTGAPEKYVKPLQDIGCFVIADVASIRHARKALQQGVDGLALLTAGAGGQTGWANGFAFVRAIRDFYDGPLLLAGGVSDGQALWAARTLGCDLGLMGTRFIGTQECDASDGYKAMLVDSSIDDVVLTRGISGIDANFLRPSIIACGLDPQELVAPVSPERAREMFSSYADGMRGPKRWVDLWSAGHTVSGVKVVQSVSEVVDQLAVEYTRAQRATRAPLADADDPAI | failed
8 | MTQQPRSTARTPASAEDPAAAAAHPPLAAPRPPAEHRVWPRTFHDRLTAPLPGLKAFARFAREGAVRPGPAGLADVPRLPCAPGPLPRVDARTVAVTWAGHASWVVRIGGLTVLTDPVWSRRILGTPPRVTPVGVPWSALPRVDAVVISHNHYDHLDAPTLRRLPRDTPVLVPAGLGRWFHRRRFTHVTELDWWEATELNGVRFDFVPAHHWSKRSLTDTCRTLWGGWVLTDPDGRRVYFAGDTGYGHWFTRIGRRYPGIDLALLPIGAYDPRWWLSDVHCDPEEAVRAAQDVGARRMAPMHWGTFVLSAEPVLEPLARVRAAWQQAGLPRERLWDLPIGASRVLE | failed
9 | HVETIKNTFLNPKSNKVLVVAHRGNWRSAPENSTAAIDSAIAMKVDIVEIDIQKTKDGQLILMHDNTLDRTTTGKGEIKNWTLADIKKLKLKDKDGKVTNYVVPTLEEALLTAKGKIMVNLDKAYDIFDDVYAILEKTETQNQVIMKGGQPIETVKREFGSYLDKVLYMPVIDLGNKEAEKIITDYLKELRPAAFEIIYSDPKNPLPPKIKQLLFKKSLIWYNTLWGSLAGNHDDNLALTDPEKSYGYLIEQLGARILQTDQPAYLLDYLRKKGWHN | not failed
10 | MDTTCLVLTWMGSRVPIETIEEDGEFDWEAAVKEIDLACLKTTNAHPPITENLTKPPAKRQSTLDKFIGRTEPKPENHQVVSECGGNDNDNSLLVEIDPEAAKTWIYRGLLRLLTF | failed
11 | MPLPSLKDQFGALIAASSVSCTQPELDQTNRPVVDLLASWLGDLGFRCEIREVSPGKFNLLASYGSGPGGLVLAGHTDTVPYDEALWSSDPLRLDERDGRWYGLGSCDMKGFFPLAIEALLPLLDQPFRQPLMILATCDEESSMAGARALAESGRPLGRATVIGEPTNLRPIRLHKGVMMERIEILGQSGHSSDPNLGRSALEAMHATIGELMALRGEWQRAWNNPQFSVPQPTLNFGCIHGGDNPNRICGQCSLEFDLRPLPGMQPKQLREAIRQRLRPLAERHQVSIDYQPLFPAVPPFEQAQDSELVRVAERLTGHRAEAVAFGTEAPYFQRLGSETLVLGAGDIACAHQPDEHLELARIEPMVGVLRRLIQHYCLTPAAD | failed
12 | MSGTSAALKPPADATTPVRHPDAPAPGELLGAHYGHCFGCGEEQSHGLHLAARAGQGVSITAEFTVQPAHQGAPGLAHGGVLATALDETLGSLNWLLRTIAVTGRLETDFVRPVPVGTVLYLEAEVTAVAGRKIYSTATGRIGGPEGPVAVRADALFVEVKVDHFTDNGRQEEIRAAMNDPDQLRRARAFEVNP | failed
13 | METPYHQRWLAFPDAVSSYRPLESRLAGTSRATADNRTPCTGRLGTPRVFLMATDDVSKAYSSPTFDAEALLGTVISAEDPDRVLIEPWATGVDGVILDVGSGTGRWTGHLASLGHQIEGLEPATRLVELARQTHPSVTFHHGTITDLSDSPKRWAGLLAWYSLIHMGPGELPDALVALRMAVEDGGGLLMSFFSGPSLEPMYHPVATAYRWPLPELAQALETAGFQVTSSHWDPRFPHAYLTAEASLEHHHHHH | not failed
14 | YLIKFDRIAVPMAEGRSSRRVLHIAFAFASAMGSEITAITVRDQAKDITWTNKITVVTNAYKEGLSQNIKVVPKILTSSDVKSALVEELNRHSYDIVIIASEKRSIITRITSGPVSNYVIKKSNIPTALV | failed
15 | MSIISLDTRVKVGNTDYALSELFELVDQQTSDYGTSLNALKQAVVSGDLTIIQQVLQNSAAALRSLASLQNTLEKVLTLDLADPAQPEHVFIVEDSRGATELKLYKSHYTIGKADSCDIRLHSIYASRQHATLVRFLTENGEVRYRLIDGDPETSRRSANGTYVNNRSITECDLKHYDQILFGADVKATYFYLSPQFRSLTGLQDPTVSLSPDSTTEFEA | failed
16 | MKLKKRKVAAALLKRFTLPLLFTTGSLGAVTYEVHGDFINFAKVGFNHSPINPVKGIYPTETFVNLTGKLEGSVHLGRGWTVNLGGVLGGQAYDGTKYDRWAKDFTPPSYWDKTSCGTDSMSLCMNATKMWQQSGPGGVINPRGIGWEYMGEWNGLFPNYYPANAYLPGGSRRYQVYKANLTYDSDRVHMVMGRFDITEQEQMDWIYQLFQGFYGTFKLTKNMKFLLFSGWGRGIADGQWLFPIYREKPWGVHKAGIIYRPTKNLMIHPYVYLIPMVGTLPGAKIEYDTNPEFSGRGIRNRTTFYALYDYRWNNAEYGRYAPARYNTWDPFLDNGKWRGLQGPGGATLLLRHHIDINNYFVVGGAYLNIGNPNMNLGTWGNPVAVDGIEQWVGSIYSLGFAGIDNITDADAFTEYVKGGGKHGKFSWSVYQRFTTAPRALEYGIGMYLDYQFSKHVKAGLKLVWLEFQIRAGYNPGTGFLGPNGQPLNLNTGLFESSAFAQGPQNMGGIAKSITQDRSHLMTHISYSF | failed
17 | MNVLSLGSSSGVVWGRVPITAPAGAATGVTSRADAHSQMRRYAQTGPTAKLSSAPMTTMWGAPLHRRWRGSRLRDPRQAKFLTLASLKWVLANRAYTPWYLVRYWRLLRFKLANPHIITRGMVFLGKGVEIHATPELAQLEIGRWVHIGDKNTIRAHEGSLRFGDKVVLGRDNVINTYLDIEIGDSVLMADWCYICDFDHRMDDITLPIKDQGIIKSPVRIGPDTWIGVKVSVLRGTTIGRGCVLGSHAVVRGAIPDYSIAVGAPAKVVKNRQLSWEASAAQRAELAAALADIERKKAAR | failed
18 | MISILLFALTSFLIGLSGAMAPGPLLTVTVSDSIRRGFRAGPLLVAGHVLGEALLVTLILMGLGYILRSGPAPAILGTAGGAVLIWMGILGFRDSEDTENIPEGGSILRGAIISFANPYFFLWWGAVGAALMYRGLELAGVLGLLAFLAGHWSSDLTWYSLVSFLSSRKSFRMNGRPYKIVMMILSLFLILFGVYFLIESLKAISGYS | failed
19 | MEEPKWLEGLLRTNFFSICPRHRETPRNECNMFCLSCQNAAFCFYCRSSFHIDHPVLQIRRSSYHDVVRVSEIENALDIRGVQTYVINSARVLFLNERPQPKNSSHEPFLIPFASVPWVARFVFLHLFSMQNSFL | not failed
20 | ECPAVVAVVARGSEQNLQIRPARYSEESPWTSNGFEEKNFRSFFGRMEKHYRESTGESLMKDVYVMGLNNIEYPASLPLSSEGSSAIELGTSISSGRDNVISAIDRFESATGCTPKYLLAGYSQGVLIVDGYEEELIARDQYLGTLHIANPAQQVDDPTLVGHEVTTGGLASSVEPVEDNPFKVSYCLPGDIVCDRSFEQFSAAGSSIAAAQLSTGNIRPGRVHVQYFVTTQPWDEQIFDEVASWIEAA | failed
21 | MSTSYQHSGPEFTEAQMQAMVDGLFAGASIGAVCNMQQEQLEAGYALAYNLYTAGNYRDAETMFRALCVYDHNDERYWLGLAGCRQAQGDLAGAIDAYGLAGAASALGDPAPFVHAGICYMKLGDTENARNTFAGVPFIGDPDNDTHAAMHRKAEAMLELLAGERP | failed
22 | MSPEGAERYDRNCDHQFQKGHVLIEMMGIKKGDFVLDVGCGTGRQALNVAGIIGPAGKLTGIDPSSYRIELARKKFEGDSSGNVRFLVRQAENLQDIPDNSINHAYFCSSFHWVDDKKTALNEIFRVLRPGGKVGMTTLDRNSPNTMKALIDPILAKFGIERRHEWHRGMKKVTAPELHDLLSGAGFTSISIEPRAVPRKYNSPEEFLQHPEEKDSSRGILRDISNETLEKLRQEITEEFRKAQTPEDIGFGNITLFAIATKAQEGLEHHHHHH | failed
23 | MIGMDHLAIGTYEGFLIGYDIDTQPNDPKTTTGCTLRYAYAAHERSIRCIAGSFPILASASVDESIKVYQLDQLQELATLYDLQVPVNSVDIQLQGGLLSGGEDGKLVYYPYGGWSKPKYLKGHKGNVHSVALHPTGQICLSVARDKCLKLWKTNGDCVCSLELPDEAFIVKWTEDGQGWVIATQTSFSVHSLQTGLIQQWEYSTRLVCLCALTNDIFVVGGMDGHLRVGENKPIQVHKVDGGSLVKGIGVGRDGCIYSLSSKGVLEMVAPSRQLEIQNGVVKRYIE | failed
24 | MKKYILIGLGGAIGAILRCFIRNTKIPVYKGEFPISTLMINLSGAFILAVILITANEIWSFNEEIRLGIATGFVGAYTTFSTMCKETIILMNKNLYFLAFCYVTVSVVFGLLFAYFGALSARKILSRLLKVRKEDEKAS | failed
